PMC4288057, “Garlic γ-glutamyl transpeptidases that catalyze deglutamylation of biosynthetic intermediate of alliin” (Frontiers in Plant Science, 2015)

Substrate: C=CCSC[C@H](NC(=O)CC[C@H](N)C(=O)O)C(=O)O
Assay: HPLC of S-allyl-L-cysteine formed, crude yeast extract
Format: biochemical, Allium sativum
Conditions: 10 mM glycylglycine as acceptor, 50 mM Tris-HCl pH 8.0 (standard assay), 37°C, 6 h

B1: AsGGT3 (Allium sativum) (protein)
chain: MLINSYPAYHCFPHTEEFHQNFMPAYITKWLAVTLLLLVFYKPILAGDEIRHRREVITSKNGAVASDDGRCSVIGTDVLKEGGNAIDAAVAASFCLGVVSAASSGIGGGAFMLIRMANGEAHAIDMRETAPLHASQNMYNGNAILKGSGILSVAVPGEIAGLHKAWKQHGKLPWKRLVMPAAKIAKAGFEISKYLYMQMNRTKSEILKDKGMQDIYASNGTLLNPGDICRNKELACTLREIAVHGPKVFYNGSVGIKLVKDIQKLGGILTLNDLKNYRVKVNKPISANVMGYEILGMPPPSSGGAGMILILNILAQYGIPSGVSGSLGLHRFIESLKHMMAIRMNLGDPEFVNVSQVLSEMLSPKFAEDLKKRIYDNMTFDPSYYGPKWNLVNDHGTSHLSIVDSERNAVSMTSTVNSYFGAGIVSPSTGIVLNNEMDDFSIPSNSSNNNMPPPAPANFIAPLKRPLSSMSPTVVLKDGKLVASLGASGGGMIIAAATHIFLKLFAEKLDPLASALSPRSYHQLIPNVVQYEDWMTVIGDHFLVAEKERAALEKKGHVLKPLAGGTICQFVIQGADDAKELGLGIANGDLMAISDPRKGGIPDGY
notes: full-length coding region (605 aa), no tag, pYES2 in Saccharomyces cerevisiae BJ2168, crude yeast protein extract
In the case of B1, the Km is reported as 9400 µM.

B2: AsGGT2 (Allium sativum) (protein)
chain: MEPAHDDLESSLLRYRPLHNDHTTVRRYPIIIIVATFVVFGLLFSIQFNLDNSERVYELKTKSGGEVVQSEVGVVAADDGYCSETGASILRKGGHAVDALVATAICEGIRHPMSSGIGGGAFIVVRSAKDGKAFAFDARETAPIASSRDMYQNNHSDKCLGPLSIGIPGEVAGLHAIWKMYGKLPWKSLFQPSIDLLRNGFKIVPYLDMSIREHADKILSDPGLREVFAPNGRLLRLNDTLYNYRLVNSLETIAREGPQALYSGSIGEKFIQDVRDLGGIITMDDMENYKVEVTEALSGNALGYTIIGMPPPSTGTVGISMVLNILGSYKTLDAVKGLIGIHRLIEAIKHTLGMRMNLGDPNFVNITEYVNDMLSPTYAEKVKERIFDNTTFDLSYYSNKWSQLSDHGTSHVSIVDSERNAVSFTSTINEYFGAGVMSPATGIIANNEMCDFATPTDETVDDIPPAPTNFIEPNKRPLSSMSPLIILKDDNLAGVIGASGGMNIIPAIAQVLINYFILGMDPLKAVQYPRFYHRFTPNVVLYENYTAVNGENFMFPEAAIKFLEERHHQLQMKAGVAAVCQFVVQNLTESGSSNANMKNGGHLRGMLTAVSDPRKDGSPACV
notes: full-length coding region (622 aa), no tag, pYES2 in Saccharomyces cerevisiae BJ2168, crude yeast protein extract
B2 was tested, and the Km was 1100 µM.

B3: AsGGT1 (Allium sativum) (protein)
chain: MNQMAPASSDQKLGTSLIVRENSTDRRFALHWILILAALTTLFALGLHLSSVQYRGSEELGEFRKGLKSTGGSDAVESEKGVVAADDGYCSEIGASVLRKGGHAVDAVVATAICEGVRHPMSSGIGGGAFMVVRSAKDGKALAFDARETAPLAASKDMYQNNPLAKSLGPLSMGIPGEIAGLHAAWLLYGKLPWKSLFEPSITLLKNGVKIEPYLALSINDNKDKIMSDPGLAEVFAPNGKLLQLNDTFYNFKLADSLEAIAEEGPQAFYNGSIGQKFIQDIRNLGGIVTMNDMRKYTVEITEPLYSDVLGYTLVGMPLPSSGTLGVSMVLNILGSYETLNAMKGFHGLHRLIEAVKHTLAIRMNLGDSKFVNCTKYVDDMLSPTYAEQVKERIFDNTTFDPSYYLNRWSQIRDHGTSHMSIVDSERNAVAFTSTVNMYFGGGVMSPSTGIVANNEMDDFSIPTDATEDGLPPAPSNFIEPNKRPLSSMSPLIILKDNQLAGVLGASGGMNIIPAVSQVFINHFVLGVDPLKAVQHPRFYHTLIPNLVQYENWTALDGELFEFSEAAKEFLAKRNHQLQMKSGAGAVCQFVVQNLTSSNSNKETDGIIRGMLTAVSDPRKDGSPACV
notes: full-length coding region (627 aa), no tag, pYES2 in Saccharomyces cerevisiae BJ2168, crude yeast protein extract
For B3, the Km was 86 µM.
